We go through three molecules from paper PMC3511050 (FEBS letters, 2012).

In one assay the target is SufE (Escherichia coli) (UniProt P76194). Kind of assay: SPR. Particulars: cited from earlier work.
Another assay concerns the target T1, SufE (E. coli), P76194.
T1 chain: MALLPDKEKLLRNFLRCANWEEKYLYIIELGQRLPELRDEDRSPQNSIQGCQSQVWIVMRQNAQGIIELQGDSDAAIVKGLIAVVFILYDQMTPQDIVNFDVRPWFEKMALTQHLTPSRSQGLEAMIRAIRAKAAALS
Description: cross-linking. To be noted: remark: other sources report otherwise.

The target of assay [1] is T2, SufS cysteine desulfurase (E. coli, UniProt P77444 1-406).
T2 sequence (looked up): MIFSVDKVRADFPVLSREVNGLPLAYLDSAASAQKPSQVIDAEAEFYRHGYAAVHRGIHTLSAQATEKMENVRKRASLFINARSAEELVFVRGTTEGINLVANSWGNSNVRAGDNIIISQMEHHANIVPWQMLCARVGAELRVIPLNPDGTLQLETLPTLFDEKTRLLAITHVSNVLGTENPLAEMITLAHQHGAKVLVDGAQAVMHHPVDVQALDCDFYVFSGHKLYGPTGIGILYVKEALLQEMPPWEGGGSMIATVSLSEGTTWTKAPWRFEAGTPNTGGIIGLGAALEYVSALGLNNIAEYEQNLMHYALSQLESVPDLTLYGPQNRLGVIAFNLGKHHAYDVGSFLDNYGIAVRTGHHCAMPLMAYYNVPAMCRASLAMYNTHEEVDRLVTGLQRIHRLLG
Description: inhibition of enzyme activity.

As for SufS (from UniProt P77444), the equilibrium dissociation constant (Kd) (as a rule, the constant that tells how readily two partners part at equilibrium) with SufE (Escherichia coli) was 360 nM.

B1: SufE, P76194 1-138 (natural protein)
chain: MALLPDKEKLLRNFLRCANWEEKYLYIIELGQRLPELRDEDRSPQNSIQGCQSQVWIVMRQNAQGIIELQGDSDAAIVKGLIAVVFILYDQMTPQDIVNFDVRPWFEKMALTQHLTPSRSQGLEAMIRAIRAKAAALS
In the case of B1, in the assay with SufE (E. coli), P76194, the percent of total protein as disulfide-bonded homodimer (with or without H2O2) stood at 18% and the stoichiometry N (in general, a count of units in the complex or per binding partner) was 2.

B2: SufE where C51 has been covalently blocked with iodoacetamide (natural protein, E. coli, UniProt P76194 1-138, looked up)
chain: MALLPDKEKLLRNFLRCANWEEKYLYIIELGQRLPELRDEDRSPQNSIQGCQSQVWIVMRQNAQGIIELQGDSDAAIVKGLIAVVFILYDQMTPQDIVNFDVRPWFEKMALTQHLTPSRSQGLEAMIRAIRAKAAALS
modifications: C51 covalently blocked with iodoacetamide
For the molecule B2, affinity in assay [1] was put at a Ki of 190 nM.
